Measured values reported in patent US20090163411A1 (BOLDER BIOTECHNOLOGY, published 2009).
Numbering of substitutions follows the chain as printed. Numbers in names are those of the source.

B1: sFlt-1(3) G26C (receptor)
chain: CSKLKDPELSLKGTQHIMQAGQTLHLQCRGEAAHKWSLPEMVSKESERLSITKSACGRNGKQFCSTLTLNTAQANHTGFYSCKYLAVPTSKKKETESAIYIFISDTGRPFVEMYSEIPEIIHMTEGRELVIPCRVTSPNITVTLKKFPLDTLIPDGKRIIWDSRKGFIISNATYKEIGLLTCEATVNGHLYKTNYLTHRQTNTIIDVQISTPRPVKLLRGHTLVLNCTATTPLNTRVQMTWSYPDEKNKRASVRRRIDQSNSHANIFYSVLTIDKMQNKDKGLYTCRVRSGPSFKSVNTSVHIYDKAFITVKH
B2: 20 kDa-Cys-Flt-1(3) G26C (receptor)
chain: B1 chain
modifications: 20 kDa maleimide-PEG on Cys 26
B3: Wild type sFlt-1(fl) (receptor)
chain: SKLKDPELSLKGTQHIMQAGQTLHLQCRGEAAHKWSLPEMVSKESERLSITKSACGRNGKQFCSTLTLNTAQANHTGFYSCKYLAVPTSKKKETESAIYIFISDTGRPFVEMYSEIPEIIHMTEGRELVIPCRVTSPNITVTLKKFPLDTLIPDGKRIIWDSRKGFIISNATYKEIGLLTCEATVNGHLYKTNYLTHRQTNTIIDVQISTPRPVKLLRGHTLVLNCTATTPLNTRVQMTWSYPDEKNKRASVRRRIDQSNSHANIFYSVLTIDKMQNKDKGLYTCRVRSGPSFKSVNTSVHIYDKAFITVKHRKQQVLETVAGKRSYRLSMKVKAFPSPEVVWLKDGLPATEKSARYLTRGYSLIIKDVTEEDAGNYTILLSIKQSNVFKNLTATLIVNVKPQIYEKAVSSFPDPALYPLGSRQILTCTAYGIPQPTIKWFWHPCNHNHSEARCDFCSNNEESFILDADSNMGNRIESITQRMAIIEGKNKMASTLVVADSRISGIYICIASNKVGTVGRNISFYITDVPNGFHVNLEKMPTEGEDLKLSCTVNKFLYRDVTWILLRTVNNRTMHYSISKQKMAITKEHSITLNLTIMNVSLQDSGTYACRARNVYTGEEILQKKEITIR
B4: 20 kDa-Cys-Flt-1(3) N164C (receptor)
chain: SKLKDPELSLKGTQHIMQAGQTLHLQCRGEAAHKWSLPEMVSKESERLSITKSACGRNGKQFCSTLTLNTAQANHTGFYSCKYLAVPTSKKKETESAIYIFISDTGRPFVEMYSEIPEIIHMTEGRELVIPCRVTSPCITVTLKKFPLDTLIPDGKRIIWDSRKGFIISNATYKEIGLLTCEATVNGHLYKTNYLTHRQTNTIIDVQISTPRPVKLLRGHTLVLNCTATTPLNTRVQMTWSYPDEKNKRASVRRRIDQSNSHANIFYSVLTIDKMQNKDKGLYTCRVRSGPSFKSVNTSVHIYDKAFITVKH
modifications: 20 kDa maleimide-PEG on Cys 164
B5: 20 kDa-Cys-Flt-1(3) D31C (receptor)
chain: B4 chain with D5C, C138N
modifications: 20 kDa maleimide-PEG on Cys 31
B6: sFlt-1(3) D31C (receptor)
chain: B4 chain with D5C, C138N
B7: sFlt-1(3) N323C (receptor)
chain: B4 chain with C138N, N297C
B8: sFlt-1(3) H338C (receptor)
chain: B4 chain with C138N, H312C
B9: 20 kDa-Cys-Flt-1(3) N100C (receptor)
chain: B4 chain with N74C, C138N
modifications: 20 kDa maleimide-PEG on Cys 100
B10: sFlt-1(3) N100C (receptor)
chain: B4 chain with N74C, C138N
B11: 20 kDa-Cys-Flt-1(3) H338C (receptor)
chain: B4 chain with C138N, H312C
modifications: 20 kDa maleimide-PEG on Cys 338
B12: Wild type sFlt-1(3) (receptor)
chain: B4 chain with C138N
B13: sFlt-1(3) N196C (receptor)
chain: B4 chain with C138N, N170C
B14: sFlt-1(3) N164C (receptor)
chain: B4 chain
B15: 20 kDa-Cys-Flt-1(3) N196C (receptor)
chain: B4 chain with C138N, N170C
modifications: 20 kDa maleimide-PEG on Cys 196
B16: 20 kDa-Cys-Flt-1(3) N323C (receptor)
chain: B4 chain with C138N, N297C
modifications: 20 kDa maleimide-PEG on Cys 323

The binders below were run against Recombinant Human Vascular Endothelial Growth Factor (rhVEGF) (human, UniProt P15692-4 27-191, limits assumed) (assay: cell-based or functional assay).
Sequence of Recombinant Human Vascular Endothelial Growth Factor (rhVEGF) (P15692 other isoform, or with tags, fused parts or gaps limits assumed): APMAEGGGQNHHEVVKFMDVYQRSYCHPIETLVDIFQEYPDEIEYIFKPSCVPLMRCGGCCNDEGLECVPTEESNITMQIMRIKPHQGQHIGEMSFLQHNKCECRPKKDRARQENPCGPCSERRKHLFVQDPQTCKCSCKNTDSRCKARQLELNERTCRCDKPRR

Ave Ec50's (ng/ml); inhibition of VEGF-stimulated HUVEC proliferation, BrdU Cell Proliferation assay | Binder
43 ng/mL | B1
54 ng/mL | B2
76 ng/mL | B3
75 ng/mL | B4
80 ng/mL | B5
60 ng/mL | B6
32 ng/mL | B7
55 ng/mL | B8
66 ng/mL | B9
53 ng/mL | B10
19 ng/mL | B11
36 ng/mL | B12
88 ng/mL | B13
103 ng/mL | B14
59 ng/mL | B15
40 ng/mL | B16
